# Assay results from the supplement of paper PMC7877785.
# ± gives the uncertainty stated by the source.
# Experiment: self-splicing fitness, log relative to wild type (ln ratio); higher = more splicing; Tetrahymena group I intron in knt gene, E. coli kanamycin selection, DiMSum; sequences stand for … in CUCUCU…GGAGGGAAAAGUUAUCAGGCAUGCACCUGGUAGCUAGUCUUUAAACCAAUAGAUUGCAUCGGUUUAAAAGGCAAGACCGUCAAAUUGCGGGAAAGGGGUCAACAGCCGUUCAGUACCAAGUCUCAGGGGAAACUUUGAGAUGGCCUUGCAAAGGGUAUGGUAAUAAGCUGACGGACAUGGUCCUAACCACGCAGCCAAGUCCUAAGUCAACAGAUCUUCUGUUGAUAUGGAUGCAGUUCACAGACUAAAUGUCGGUCGGGGAAGAUGUAUUCUUCUCAUAAGAUAUAGUCGGACCUCUCCUUAAUGGGAGCUAGCGGAUGAAGUGAUGCAACACUGGAGCCGCUGGGAACUAAUUUGUAUGCGAAAGUAUAUUGAUUAGUUUUGGAGUACUCGUGGUCG
# Outline: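 Colonies from six replicate transformations of E. coli BL21(DE3) were pooled and amplicon-sequenced on an Illumina HiSeq 2500. The library placed an intron with all eight P1ex-region nucleotides randomised inside the knt kanamycin-resistance gene on pET-22b(+), and cells grew overnight at 37°C or 30°C on LB agar with or without 25 μg/mL kanamycin (plus 100 μg/mL carbenicillin, 50 μM IPTG, 0.2% rhamnose). Fitness is the DiMSum error-weighted combination of wild-type-normalised replicate fold changes, kanamycin versus none.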
Sequence,self-splicing fitness (ln) (30 °C),self-splicing fitness (ln) (37 °C)
UCUUAGCAAUAUUACGUUAG,-3.78 ± 0.4,-1.17 ± 0.21
CUGUAGCAAUAUUACGUAGG,-1.03 ± 0.075,-0.77 ± 0.12
UAGAAGCAAUAUUACGUAAG,-2.31 ± 0.13,-1.3 ± 0.16
UUGAAGCAAUAUUACGGUUG,-0.894 ± 0.053,-0.569 ± 0.07
CAAUAGCAAUAUUACGGACU,-4.49 ± 0.34,-2.11 ± 0.23
GUGGAGCAAUAUUACGGUGU,-2.5 ± 0.17,-1.78 ± 0.22
UUUAAGCAAUAUUACGAACC,–,0.0298 ± 0.37
CGCCAGCAAUAUUACGCGGA,-2.91 ± 0.2,-1.99 ± 0.16
GUAAAGCAAUAUUACGUUGG,-1.84 ± 0.12,-1.56 ± 0.13
CAUCAGCAAUAUUACGUUAG,-0.472 ± 0.073,-0.526 ± 0.08
UUUUAGCAAUAUUACGCUCU,-0.0349 ± 0.23,-0.135 ± 0.18
AGUUAGCAAUAUUACGACAC,-0.65 ± 0.12,0.204 ± 0.2
UUCAAGCAAUAUUACGCGCG,-1.39 ± 0.082,-0.634 ± 0.13
GAUAAGCAAUAUUACGGCAG,-3.5 ± 0.32,-2.51 ± 0.33
UAUCAGCAAUAUUACGAAGA,-0.93 ± 0.12,-0.91 ± 0.13
CUGAAGCAAUAUUACGUGAC,-1.24 ± 0.086,-0.353 ± 0.1
UUAAAGCAAUAUUACGUUCG,0.19 ± 0.084,-0.157 ± 0.096
UCCCAGCAAUAUUACGGAGG,-3.51 ± 0.14,-2.23 ± 0.18
CGCAAGCAAUAUUACGACUG,-0.662 ± 0.097,-0.47 ± 0.12
CUUAAGCAAUAUUACGUCCU,-3.41 ± 0.21,-2.43 ± 0.19
UCGCAGCAAUAUUACGGUUA,-0.15 ± 0.086,-0.398 ± 0.087
UUCGAGCAAUAUUACGAUCG,-2.94 ± 0.32,-1.53 ± 0.43
ACACAGCAAUAUUACGCGUU,-4.3 ± 0.16,-2.29 ± 0.14
ACGGAGCAAUAUUACGGUCG,-2.48 ± 0.11,-0.856 ± 0.11
AUGGAGCAAUAUUACGCAGG,-3.69 ± 0.26,-2.89 ± 0.4
AGUUAGCAAUAUUACGAGGC,-3.83 ± 0.27,-3.27 ± 0.23

Sequence,self-splicing fitness (ln) (30 °C),self-splicing fitness (ln) (37 °C)
CUGGAGCAAUAUUACGCAGU,–,-1.99 ± 0.43
CUGUAGCAAUAUUACGGAAU,-2.18 ± 0.13,-3.57 ± 0.32
GCUGAGCAAUAUUACGGUGC,-3.9 ± 0.3,-1.61 ± 0.22
CAAGAGCAAUAUUACGAGGA,-3.17 ± 0.33,-2.79 ± 0.44
GAUAAGCAAUAUUACGGGCC,-1.48 ± 0.17,-1.13 ± 0.18
AAGUAGCAAUAUUACGCUCA,-0.287 ± 0.076,0.5 ± 0.094
CUAAAGCAAUAUUACGUGCC,-4.57 ± 0.29,-2.25 ± 0.18
GCACAGCAAUAUUACGACGC,-0.317 ± 0.079,-0.196 ± 0.12
GGAAAGCAAUAUUACGUUUG,-3.17 ± 0.26,-1.79 ± 0.25
GCGAAGCAAUAUUACGAAUC,-2.47 ± 0.11,-1.11 ± 0.12
UUUAAGCAAUAUUACGAUUC,-2.23 ± 0.23,-0.889 ± 0.19
UACUAGCAAUAUUACGACGA,-0.687 ± 0.058,-0.172 ± 0.066
UCUUAGCAAUAUUACGAAAA,–,-0.128 ± 0.34
UCCAAGCAAUAUUACGCUGC,-2.94 ± 0.21,-2.61 ± 0.27
AGCAAGCAAUAUUACGGACA,-1.12 ± 0.14,-0.766 ± 0.14
CUAUAGCAAUAUUACGAAUG,-0.481 ± 0.087,0.0255 ± 0.12
ACUUAGCAAUAUUACGCAUC,-2.69 ± 0.19,-1.64 ± 0.2
GAAGAGCAAUAUUACGCUAC,-3.19 ± 0.25,–
UGGCAGCAAUAUUACGCAAA,-1.87 ± 0.23,-0.513 ± 0.26
UCUCAGCAAUAUUACGACCU,-1.84 ± 0.18,-0.921 ± 0.22
AAUCAGCAAUAUUACGGAAC,-1.37 ± 0.064,-0.769 ± 0.093
AAACAGCAAUAUUACGGCAU,-0.814 ± 0.066,-0.78 ± 0.08
GAAGAGCAAUAUUACGCAGU,-2.47 ± 0.2,-2.38 ± 0.23
AGGUAGCAAUAUUACGGGAG,-3.83 ± 0.03,-2.39 ± 0.038
GCAGAGCAAUAUUACGAAAG,-2.9 ± 0.16,-3.24 ± 0.26
CAACAGCAAUAUUACGCGGC,-3.03 ± 0.21,-2.09 ± 0.23

Sequence,self-splicing fitness (ln) (30 °C),self-splicing fitness (ln) (37 °C)
UCGAAGCAAUAUUACGGGCU,-4.18 ± 0.39,-2.67 ± 0.35
UAAAAGCAAUAUUACGCCAU,-3.62 ± 0.26,-2.82 ± 0.3
AAUAAGCAAUAUUACGCGGU,-3.83 ± 0.24,-2.36 ± 0.17
AAGUAGCAAUAUUACGAUGA,-0.567 ± 0.14,-0.511 ± 0.15
CACCAGCAAUAUUACGUAGA,-1.46 ± 0.052,-0.916 ± 0.064
GCUCAGCAAUAUUACGUAAU,-0.739 ± 0.072,0.436 ± 0.092
GGAUAGCAAUAUUACGUACA,-1.42 ± 0.097,-0.395 ± 0.098
ACUCAGCAAUAUUACGUAAG,-0.973 ± 0.052,-0.421 ± 0.078
UGAGAGCAAUAUUACGGUAG,-3.74 ± 0.34,-2.88 ± 0.38
UCAGAGCAAUAUUACGAUAA,–,-2.46 ± 0.41
UCUUAGCAAUAUUACGGGGU,-3.44 ± 0.2,-2.39 ± 0.28
UCUAAGCAAUAUUACGUGAA,-1.68 ± 0.088,-0.923 ± 0.099
CCCUAGCAAUAUUACGAUUG,-3.45 ± 0.21,-2.38 ± 0.21
UUCAAGCAAUAUUACGGAUA,-1.18 ± 0.14,-0.384 ± 0.12
GCGCAGCAAUAUUACGUAGC,-1.95 ± 0.11,-0.709 ± 0.12
AUUUAGCAAUAUUACGGAUG,-1.94 ± 0.14,-1.91 ± 0.2
UCUCAGCAAUAUUACGCGCC,-3.46 ± 0.25,-1.25 ± 0.19
GACAAGCAAUAUUACGCUCC,-3.8 ± 0.24,-2.56 ± 0.27
UCUUAGCAAUAUUACGUACU,-2.72 ± 0.17,-1.66 ± 0.18
UUGAAGCAAUAUUACGCGGC,-1.63 ± 0.13,-0.671 ± 0.19
GUACAGCAAUAUUACGACGU,-0.603 ± 0.075,0.215 ± 0.081
AGUUAGCAAUAUUACGUGUA,-2.26 ± 0.23,-0.97 ± 0.15
CCUCAGCAAUAUUACGCCUC,-3.76 ± 0.35,-1.75 ± 0.31
ACGUAGCAAUAUUACGUGCU,-1.94 ± 0.11,-0.828 ± 0.12
